For series [1], the target named is T1, Puf4 RNA-binding domain (Saccharomyces cerevisiae, UniProt P25339 537-888).
T1 sequence: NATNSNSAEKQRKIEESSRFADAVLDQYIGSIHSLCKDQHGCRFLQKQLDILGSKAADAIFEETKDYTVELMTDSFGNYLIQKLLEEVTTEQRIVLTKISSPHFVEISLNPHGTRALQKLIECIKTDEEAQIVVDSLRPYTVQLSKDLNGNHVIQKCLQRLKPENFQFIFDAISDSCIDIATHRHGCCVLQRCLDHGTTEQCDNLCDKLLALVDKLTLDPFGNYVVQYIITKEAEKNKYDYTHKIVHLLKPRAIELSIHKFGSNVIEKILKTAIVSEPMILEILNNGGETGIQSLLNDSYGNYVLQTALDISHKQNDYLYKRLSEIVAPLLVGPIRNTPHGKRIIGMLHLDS
Briefly: EMSA; 0 C; quadratic fit; 20 mM HEPES-Na or HEPES-K pH 7.4, 2 mM MgCl2, 100 mM KOAc, 2 mM DTT, 0.2% Tween 20, 5% glycerol, 0.1 mg/ml BSA; 25 or 0 C; native 20% gel at 4-6 C. To be noted: protein: recombinant; tags: C-terminal SNAP tag; N-terminal 6xHis removed by TEV; label: 5'-32P; single strand.

Series [2] has as its target T1, Puf4 RNA-binding domain. Kind of series: EMSA; 25 C; quadratic fit; 20 mM HEPES-Na or HEPES-K pH 7.4, 2 mM MgCl2, 100 mM KOAc, 2 mM DTT, 0.2% Tween 20, 5% glycerol, 0.1 mg/ml BSA; 25 or 0 C; native 20% gel at 4-6 C. To be noted: protein: recombinant; tags: C-terminal SNAP tag; N-terminal 6xHis removed by TEV; label: 5'-32P; single strand. On the technique in general: A gel shift assay detects complexes by their altered migration in electrophoresis.

The target of series [3] is T1, Puf4 RNA-binding domain. Briefly: EMSA; 0 C; hyperbolic fit, upper limit (<=); 20 mM HEPES-Na or HEPES-K pH 7.4, 2 mM MgCl2, 100 mM KOAc, 2 mM DTT, 0.2% Tween 20, 5% glycerol, 0.1 mg/ml BSA; 25 or 0 C; native 20% gel at 4-6 C. The following applies: protein: recombinant; tags: C-terminal SNAP tag; N-terminal 6xHis removed by TEV; label: 5'-32P; single strand.
The target of series [4] is T1, Puf4 RNA-binding domain. Kind of series: EMSA; 25 C; hyperbolic fit; active-fraction corrected; 20 mM HEPES-Na or HEPES-K pH 7.4, 2 mM MgCl2, 100 mM KOAc, 2 mM DTT, 0.2% Tween 20, 5% glycerol, 0.1 mg/ml BSA; 25 or 0 C; native 20% gel at 4-6 C. The following applies: protein: recombinant; tags: C-terminal SNAP tag; N-terminal 6xHis removed by TEV; label: 5'-32P; single strand.

Series [5] has as its target T1, Puf4 RNA-binding domain. Kind of series: EMSA kinetics (koff/kon); 25 C; kon 1.04e8 M-1s-1, koff 0.014 s-1; 20 mM HEPES-Na or HEPES-K pH 7.4, 2 mM MgCl2, 100 mM KOAc, 2 mM DTT, 0.2% Tween 20, 5% glycerol, 0.1 mg/ml BSA; 25 or 0 C; native 20% gel at 4-6 C. The following applies: protein: recombinant; tags: C-terminal SNAP tag; N-terminal 6xHis removed by TEV; label: 5'-32P; single strand.

In series [6] the target is T1, Puf4 RNA-binding domain. Briefly: EMSA kinetics (koff/kon); 0 C; kon 2.85e7 M-1s-1, koff 2.92e-5 s-1; 20 mM HEPES-Na or HEPES-K pH 7.4, 2 mM MgCl2, 100 mM KOAc, 2 mM DTT, 0.2% Tween 20, 5% glycerol, 0.1 mg/ml BSA; 25 or 0 C; native 20% gel at 4-6 C. The following applies: protein: recombinant; tags: C-terminal SNAP tag; N-terminal 6xHis removed by TEV; label: 5'-32P; single strand.

For series [7], the target named is T1, Puf4 RNA-binding domain. Briefly: EMSA; 25 C; direct measurement parallel to competition; corrected for 75% active protein; 20 mM HEPES-Na or HEPES-K pH 7.4, 2 mM MgCl2, 100 mM KOAc, 2 mM DTT, 0.2% Tween 20, 5% glycerol, 0.1 mg/ml BSA; 25 or 0 C; native 20% gel at 4-6 C. To be noted: protein: recombinant; tags: C-terminal SNAP tag; N-terminal 6xHis removed by TEV; label: 5'-32P; single strand.

Series [8] deals with T1, Puf4 RNA-binding domain. Kind of series: competition EMSA; 25 C; three-fold lower Puf4; 20 mM HEPES-Na or HEPES-K pH 7.4, 2 mM MgCl2, 100 mM KOAc, 2 mM DTT, 0.2% Tween 20, 5% glycerol, 0.1 mg/ml BSA; 25 or 0 C; native 20% gel at 4-6 C. To be noted: protein: recombinant; tags: C-terminal SNAP tag; N-terminal 6xHis removed by TEV; label: none; single strand.
The target of series [9] is T1, Puf4 RNA-binding domain. Kind of series: competition EMSA; 25 C; vs labeled Puf4_HO, 0.45 nM active Puf4; 190-210 nM across 10-110 min; 230 nM with upper limit of labeled RNA; 20 mM HEPES-Na or HEPES-K pH 7.4, 2 mM MgCl2, 100 mM KOAc, 2 mM DTT, 0.2% Tween 20, 5% glycerol, 0.1 mg/ml BSA; 25 or 0 C; native 20% gel at 4-6 C. The following applies: protein: recombinant; tags: C-terminal SNAP tag; N-terminal 6xHis removed by TEV; label: none; single strand.

Kd data for two molecules are collected here from paper PMC7452723, “How to measure and evaluate binding affinities”.

B1: Puf4_HO RNA (ssRNA)
RNA: AUGUGUAUAUUAGU
By Kd is commonly meant the concentration at which binding is half-saturated. As for B1, the Kd in the series with Puf4 RNA-binding domain [1] is 0.00139 ± 9e-05 nM; in the series with Puf4 RNA-binding domain [2] it was 0.12 ± 0.03 nM; in the series with Puf4 RNA-binding domain [3], less than 0.0017 nM; in the series with Puf4 RNA-binding domain [4], 0.12 ± 0.03 nM; in the series with Puf4 RNA-binding domain [5], 0.13 ± 0.03 nM; with Puf4 RNA-binding domain [6] it was 0.00102 ± 8e-05 nM. The Kd with Puf4 RNA-binding domain [7] was 0.105 nM.

B2: U1C mutant competitor RNA (ssRNA)
RNA: CGUAUAUUA
For B2, the Kd with Puf4 RNA-binding domain [8] came out at 180 nM; in the series with Puf4 RNA-binding domain [9], 204 nM.
